Laboratory results reported in patent publication US20240052052A1.

Experiments:
[1] = target: human CD24 (human) (UniProt P25063); assay: FACS, 5637 cells
[2] = target: human CD24 (human) (UniProt P25063); assay: FACS, MCF7 cells
[3] = target: human CD24 (human) (UniProt P25063); assay: FACS, A549 cells
[4] = target: human CD24 (human) (UniProt P25063); assay: FACS, Nalm1 cells
[5] = target: human CD24 (human) (UniProt P25063); assay: FACS, H1975 cells
[6] = target: human CD24 (human) (UniProt P25063); assay: FACS, HT-29 cells
[7] = target: human CD24 (human) (UniProt P25063); assay: FACS, OCI-LY1 cells
[8] = target: human CD24 (human) (UniProt P25063); assay: FACS, OCI-LY7 cells
[9] = target: human CD24 (human) (UniProt P25063); assay: FACS, SU-DHL6 cells
[10] = target: human CD24 (human) (UniProt P25063); assay: FACS, 293F-hCD24 cells
[11] = target: human CD24 (human) (UniProt P25063); assay: FACS, MDA-MB-468 cells
[12] = target: human CD24 (human) (UniProt P25063); assay: FACS, CHOK1-hCD24 cells

Chain of human CD24 (human) (P25063 27-59): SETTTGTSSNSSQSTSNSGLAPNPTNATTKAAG

FACS MFI [1]: 185
Max MFI [1]: 185
FACS MFI [2]: 187
Max MFI [2]: 187
FACS MFI [3]: 167
Max MFI [3]: 167
FACS MFI [4]: 175
Max MFI [4]: 175
FACS MFI [5]: 203
Max MFI [5]: 203
FACS MFI [6]: 194
Max MFI [6]: 194
FACS MFI [7]: 197
FACS MFI [8]: 186
FACS MFI [9]: 188
FACS MFI [10]: 185
Max MFI [10]: 185
FACS MFI [11]: 190
Max MFI [11]: 190
FACS MFI [12]: 177
Max MFI [12]: 189
Substance: mIgG ctrl (antibody)
